Measurements reported in the nanobody polyreactivity screen of Harvey et al. (2022).

Assay: yeast display, Sf9 membrane polyspecificity reagent, FACS + sequencing; frameworks hold sequencing errors
Outline: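 Galactose-induced (36–48 hours) yeast carrying a synthetic nanobody display library were exposed to 10% biotinylated, detergent-solubilized Sf9 membrane reagent at 4 °C for 1 hour. FACS followed streptavidin microbead enrichment, using low and high (top ~1%) gates for expression (anti-HA) and reagent binding (streptavidin). Colony PCR, MiSeq 2 × 250 sequencing and CDR-length filtering followed. Labels for polyreactivity reflect the gate of origin.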

Sequence | polyreactivity (PSR sort gate)
QVQLVESCGGLVQAGGSLRLSCAASGRISQNAMGWYRQPPVKERELVAAITFSGGSTYYADSVKGRFTISRDNAKNTVYLQMNSLKPEDTAVYYCNGDYGDWPTAGDYWGQGTQVTVSS | low polyreactivity
QVQLVESCGGLVQAGGSLRLSCAASGRTFTDYVMGWYRQAPGKERELVAGIRRSGGTYYADSVKGRFTISRDNAKNTVYLQMNSLKPEDTAVYYCAAPVQTGPDPEYDYWGQGTQVTVSS | low polyreactivity
QVQLVESCGGLVQAGGSLRLSCAASGSTFGYYAMGWYRQAPGKETELVAAISSRGGSTYYADSVKGRFTISRDNAKNTVYLQMNSLKPEDTADYYCAARGLFFRNRYGYWGQGTQVTVSS | high polyreactivity
QVQLVESCGGLVQAGGSLRLSCAASGSTFRFYAMGWYRQAPGKERELVAAINGSGGSTYYADSVKGRFTISRDNAKNTVYLQMNSLKPEDTAVYYCAVLYRYGYDYWGQGTQVTVSW | low polyreactivity
QVQLVESCGGLVQAGGSLRLSCAASGSTFRYYPMGWYRPATGKETELVASISIGGGSTYYADSVKGRFTISRDHAKNTVYLQMNSLKPEDTAGYYCAAERTIRAARPFFRTFDYWGQGTQVTVSS | low polyreactivity
QVQLVESCGGLVQAGGSLRLSCAASGSTFSSYAMGWYSQAPGKERELVAAISSSGGTSTYADSVKGPFTISRDNAKNTVYLQMNSLKPEDTAVYYCNTDRFRRLYDYWGQGTQVTVSS | high polyreactivity
QVQLVESCGGLVQAGGSLRLSCAASGSTFYRYAMGWYRQAPGKERELVARITRTGGITNYADSVKGRFTISRDNAKNTVYLQMNSLKPEDTAVYDCAKTNIRDHYYWGQGTQVTVSS | high polyreactivity
QVQLVESCGGLVQAGGSLRLSCAASGYIFVYNAMGWYRQAHGKERELVAAISTTGGRTYYADSVKGRFTISRDNAKNTVYLQMNSLKPEDTAVYYCAARAYYARSLFGYWGQGTQVNVSS | high polyreactivity
QVQLVESCGGLVQAGGSLRLSCAPSGRTIVYKAMGWYRQAPGKERELVAAISWSGGSPYYADSVKGRFTISRDNAKNTVNLQMNSLKPDDSAVYYCATSSYYYTIWMYYWGQGTQVTVSS | high polyreactivity
QVQLVESCGGLVQAGGSLRLSCASSGFIFFENAMGCYIQAPCKERELVAVISSSGTSTYYADSVKGRFTISRDNAKNTVYLQMTSLKPEDTAVYYCAKDYYRSYGREDYWGQGTQVTVSS | low polyreactivity
QVQLVESCGGLVQAGGSLRLSCASSGLTFSRYAMGWSRQAPGKERELVAVISRSGGSTYYADSVKGRFTISRDNAKTTVYLHMNSLKPEDTAVYYCAVRAYIKMDYWGQGTQVTVSS | high polyreactivity
QVQLVESCGGLVQAGGSLRLSCSATGSTSVANAMGWYRQAPGKEREIVAAITGYGVSTYYADSVKGRFTISRDNAKNTVFLQMNSLKPEDTAVYYCATRGVSTSRPGYYWGQGTQVSVSS | high polyreactivity
QVQLVESCGGLVQAGGSLRLSCSSSGRIFRGNAMGWYRQAPGKERELVAAILTGVTTYYADSVKGRFTISRDNAKNTVYLQTNSLKPEDTAVYYCAAERPSRRSGYEYWGQGTQVTVSS | low polyreactivity
QVQLVESCGGLVQAGGSLRLSFAASGSILVRYAMGWYRQAPGKERELVAAITSGGSTYADSVKGRFTISRDNAKNTVYLQMNSLKPEDTAVYYCAADAYGYGGDSWGQGTLVTVSS | low polyreactivity
QVQLVESCGGLVQAGVSLRLSCAASVFKYAMGRYRQAPGKKRELVAAISSGGITSYADSVKGRFTISRDNAKNTVYLQMNSLKPEDTAVYYCNARLRHSQYAYYYWGQGTQVTLSS | high polyreactivity
QVQLVESCGGLVQEGGSLRLSCAASGFTFLRYAMGWYRQAPGKERELVAAISIPGGNTYYADSVKGRFTISRDNAKNTVYLQMNSLKPEDTAVYYCAARFGGGAARHGYWGQGTQVTVSS | high polyreactivity
QVQLVESEGGLVQAGGSLRLSFAASGSIFPYNAMGWYRQAPGKERELVAAISISGGSTYYADSVKGRFTISRDNAKNTVYLLMNSLKPEDTAVYYCAARQSLSSAFDYCGQGTQVTVSS | low polyreactivity
QVQLVESGAALVQAGGSLRLSCAASGFIIYDYMGWYRQAPGKERELVAVISYSGSSTYYADSVKGRFTISRDNAKNTDYLQMNSLKPEDTAVYYCAARNVNGWDYDYWGLGTQVTVSS | low polyreactivity
QVQLVESGAGIVQAGGSLRLSCAASGSTFGRYAMGLYTQAPGKERELVAAISASGGSTYYADSVKGRFTISRDNAKTTVYLQMNSLTPEDTAVYYCAKDRPQTRLWYYFIDDYDYRGQGTQVTVSS | high polyreactivity
QVQLVESGAGLFKAGGSLRLSCAASGRIFATNAMGWYRQAPGKERELVAAISSSGGSTYYADSVKGRFTISRDNAKNTVYLQMNSLKPEDTAVYDCAAAHSYYVHYYYWGQGTQGTVSS | high polyreactivity
QVQLVESGAGLVKAGGSLRLSCAASGRTLTGNDMGWYRQAPGKERELVAAITARGGSTYYADSVKGRFTISRDNAKNTVYLQMNSLKPEDTAVYYGATLPVRIRRDYWGQGTQVTVSS | high polyreactivity
QVQLVESGAGLVLAGGSLRLSCAASGRTFRLYAMGWYRQAPGKERELVAAISYSDGRTYYADSVKGRFTISRDNAKNTVYLQMNSLKPEDTAVYYCAAETLYVAGSYYWGQGTQVTVSS | high polyreactivity

Sequence | polyreactivity (PSR sort gate)
QVQLVESGAGLVQAAGRLRLSCAASGNTFKVNVMGWYRPAPGKERQLVASITINDRSTYYADSVKGRFTISRDNAKNTVYLQMNSLKREDTEVYYCGGDLADFYPRFNYWGQGTQVSVSS | low polyreactivity
QVQLVESGAGLVQAGGILLLSSAASGRIFLFYSLGWSRQEPGKERELVAAISVRGGSTYYADSVKGRITISRDNAKNTVFLQMNSLKPEDTAVYYCNAPNYRSRFDYWGQGTQVTVSS | high polyreactivity
QVQLVESGAGLVQAGGSLRISCAASASIFAYYVMGRYREAPGKERELVAAITRSGSPYYADSVKGRFTISRDNAKNTVYLQMNSLKPEDTAVYYCAAPTDFLFWEFDYWGQGTQVTVSS | low polyreactivity
QVQLVESGAGLVQAGGSLRISCAASGRIFAQYAMGWYRQAPGKERELVAAITTTGRTYYADSVKGRFTISRDNAKNTVYLQMNSTKPEETAVYYCAVGYHAPKVSTSDPRYDYWGQGTQVTVSS | low polyreactivity
QVQLVESGAGLVQAGGSLRLICAASGRIFDRYTMGRYRQAPGKERELVAAITQRGTSTYYADSVKGRFTLSRDTAKNTVYLQMNSLKPEDTAGYYCAATALFSGLNKRYYWGQGTQLTVSS | high polyreactivity
QVQLVESGAGLVQAGGSLRLICAASGSTSTTYTMGWYRQAPGKERELVAAISYSGGSTYYADSVKGRFTISRDNAKNTVYLQMNSLKPEDTAVYYCAAQSFVGWREYESWGQGTQVTVSS | high polyreactivity
QVQLVESGAGLVQAGGSLRLRCAASGSIFPGSALGWYRQARGKERELVAAITFGGAITYYADSVKGRFTISRDNAKNTVYLLMNSLKPEDSAVYYCAAKSPRILLDYWGQGTQVTVSS | low polyreactivity
QVQLVESGAGLVQAGGSLRLRCAASRRSFRNYAMGWYRPAPGKEREVVAAIRSGVRTYYADSVKGRFTISRDNAKNTVYLQMNSLKPEDTAVYYCAVATGLLYKSHGYWGQGTQVTVSS | low polyreactivity
QVQLVESGAGLVQAGGSLRLSCAASGFIFAGYAMGLYRQAPGKERELFAAISSRGGSTYYADSVKGRFTISRDNAKNPVDLQMNSLKPEDTAVYYCNKYYYGFTPVGYKKMDYWGQGTQVIVSS | low polyreactivity
QVQLVESGAGLVQAGGSLRLSCAASGFIFWRNTMGWYRQAPGKERELVAVITRGGSTYYADSVKGRFTISRDNAKNTVYLQMNSLKPVDTAVYYCNADNVVEGYDRRSARASYRYYYWGQGTQVTVSS | low polyreactivity
QVQLVESGAGLVQAGGSLRLSCAASGFTFQYYAMGWYRQAPGKERELVATISSTDNTYYADSVKGRFTISRDNAKNTVYLQMNSLKPEDTAVYYCAARPTYRRRQGRGYWGQGTQVTVSS | high polyreactivity
QVQLVESGAGLVQAGGSLRLSCAASGFTFWRYVMGTYRPAPGKERELVAGITSGGSTYYADSVKGRFTISRDNAKNTVYLQMNSLKPEDTAVYYCAARSGFRSRHKYDYWGQGTQVSVSS | high polyreactivity
QVQLVESGAGLVQAGGSLRLSCAASGFTFYYNAMGWYRQAPGKERELVASISSNGTSTYYADSVKGRFTISRDYAKNTVYLQMNSLKPEDTAVYYCNVDIFDPRTYDYWGQGTQVTVSS | low polyreactivity
QVQLVESGAGLVQAGGSLRLSCAASGIIFSGYAMGWYTQAPGKERELVAAISYSGASTYYADSVKGRFTISRDNAKNTVYLQMNSLKPEDTAVYYCAADRRYARYWNGWRYNYWGQGTQVTVSS | high polyreactivity
QVQLVESGAGLVQAGGSLRLSCAASGITFSYYSMGWYRQAPGKERELVAVISGSGSTTSYADSVKGRFTISRDNAKNTVYLQMNSLKPEDTAVYYCAADGGWRPEYYYWGQGTQVTVSS | low polyreactivity
QVQLVESGAGLVQAGGSLRLSCAASGLIFQSNAMVWYRQAPGKERELVAAISTAGSTNYGDSETGRFTISRDNAKKTVFLQMNSLKREDTAVYSCAAQVSTPYRYPRQILYDYWGQGTQVTVSS | low polyreactivity
QVQLVESGAGLVQAGGSLRLSCAASGLTFLQNALGWSRQAPGNERELVAAINIGTNTYADSVKGRFTISRDNAKNTVYLQMNSLKPEDTAVDYCNTDSAPYYWLSDNYDSWGQGTQVTVSS | low polyreactivity
QVQLVESGAGLVQAGGSLRLSCAASGLTSTNNAMGWYRQAPGKERELVAAITSGSTTNYADSVKGRFTISRDNAKNTVYLQMNSLKPEDTAVYYCAAQYGVWWRRYYYPEYDYWGQGTQVTVSS | low polyreactivity
QVQLVESGAGLVQAGGSLRLSCAASGNIFRFYAMGWYRQAPGKERELVAAISYNGGRTYYADSVKGRFTISRDNAKNTVYLQMNILKPEDTAVYYCNAAGRDDAYDYWGQGTQVTVAS | high polyreactivity
QVQLVESGAGLVQAGGSLRLSCAASGRIFHFYAMGWYRQAPGKERELVAAITSRTGNTYYADSVKGRFTISRDNAKNTVYLQMNSLKPEDTAVYYCAAKLVNALLHYRNWNHNNYWGQGTQVTVSS | low polyreactivity
QVQLVESGAGLVQAGGSLRLSCAASGRIFNWYVMGWYRQAPGKERELVAAINSGGITKYADSVKGRFTISRDNAKNTVYLQMNSLKPEDTAVYYCAAYYRRYDYDYWGQGTQVTVSS | high polyreactivity
